Our source for the Top mean fluorescence intensity (Top MFI) values is patent EP4714974A1.

The target in assay [1] is human GPRC5D (human) (UniProt Q9NZD1). Description: flow cytometry on human GPRC5D-CHOK1 cells (negative control).
Assay [2] concerns the target cynomolgus monkey GPRC5D (cynomolgus monkey). The experiment in a line: flow cytometry on cynomolgus monkey GPRC5D-CHOK1 cells (negative control).
In assay [3] the target is human GPRC5D (human) (UniProt Q9NZD1). The experiment in a line: flow cytometry on human GPRC5D-CHOK1 cells (negative control). The source holds these as a separate data set.
Assay [4] shares this target. The experiment in a line: flow cytometry on NCI-H929 cells (negative control).

human GPRC5D (human), sequence (Q9NZD1 whole entry): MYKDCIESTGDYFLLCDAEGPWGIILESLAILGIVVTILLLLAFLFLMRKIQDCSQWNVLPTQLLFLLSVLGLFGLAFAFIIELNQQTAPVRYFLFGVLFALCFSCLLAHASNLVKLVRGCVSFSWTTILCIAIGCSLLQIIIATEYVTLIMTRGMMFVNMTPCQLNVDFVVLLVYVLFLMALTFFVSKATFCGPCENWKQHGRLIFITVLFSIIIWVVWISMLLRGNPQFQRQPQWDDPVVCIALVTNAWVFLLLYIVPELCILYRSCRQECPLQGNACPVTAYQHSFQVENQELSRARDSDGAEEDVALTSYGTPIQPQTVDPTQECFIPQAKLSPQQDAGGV

Take “IgG1 AA (negative control, purchased from Biointron, Cat. No. B109802) (antibody)”: the Top mean fluorescence intensity (Top MFI) with human GPRC5D (human) [1] was 1610 MFI; in assay [2], 2040 MFI; in the assay with human GPRC5D (human) [3], 51 MFI; with human GPRC5D (human) [4], 165 MFI.
